Our source for the Km, kcat and kcat/Km values is article PMC4794390.

Residue numbers refer to the chain shown, from its start. In names and notes the source's numbering stands.

Substrate in this data set: Nc1nc2c(ncn2[C@@H]2O[C@H](CO)[C@@H](O)[C@H]2O)c(=O)[nH]1
Put plainly: purified protein. The data set is classed as biochemical, Homo sapiens.

The mark [1] stands for this setting: phosphate catalytic site (His257, Asn243, Glu201).

B1: purine nucleoside phosphorylase (PNP) (Homo sapiens) (protein)
chain: MENGYTYEDYKNTAEWLLSHTKHRPQVAIICGSGLGGLTDKLTQAQIFDYGEIPNFPRSTVPGHAGRLVFGFLNGRACVMMQGRFHMYEGYPLWKVTFPVRVFHLLGVDTLVVTNAAGGLNPKFEVGDIMLIRDHINLPGFSGQNPLRGPNDERFGDRFPAMSDAYDRTMRQRALSTWKQMGEQRELQEGTYVMVAGPSFETVAECRVLQKLGADAVGMSTVPEVIVARHCGLRVFGFSLITNKVIMDYESLEKANHEEVLAAGKQAAQKLEQFVSILMASIPLPDKAS
For the protein B1, under setting [1], the Km came to 63 ± 8 µM, the kcat was 8.8 ± 0.5 s⁻¹ and the kcat/Km amounted to 140000 M⁻¹ s⁻¹.

B2: purine nucleoside phosphorylase (PNP) (Homo sapiens; E258D/L261A) (protein)
chain: B1 chain with E258D, L261A
In the case of B2, for the setting “phosphate catalytic site”, the Km is reported as 73 ± 13 µM, the kcat was found to be 4.2 ± 0.4 s⁻¹ and the kcat/Km was determined as 58000 M⁻¹ s⁻¹.
